# Experimental data from patent publication US20220025010A1 (ANTAG THERAPEUTICS, published 2022).
# *1 amine or outer side, *2 acyl side, *3 side chain or, on linkers, in order; H or OH if unused. Where no end group is shown, it is not given here. Side-chain parts run from the residue outwards. The star is where a group is joined. C18 diacid = O=C(O)CCCCCCCCCCCCCCCCC(=O)*; C16 diacid = O=C(O)CCCCCCCCCCCCCCC(=O)*; γGlu = O=C(O)[C@H](CCC(=O)[*:2])N[*:1]; AEEA = NCCOCCOCC(=O)O
# B1: AT234 (peptide)
# peptide: TFISDYSIALDRIKQQDFVNWLLAQR-NH2
# modifications: not fully specified (residue 14); printed as TFISDYSIALDRIKQQDFVNWLLAQR-(AEEAc +γ-Glu)-C16-diacid/K18
# B2: AT378 (peptide)
# peptide: EGTFISDYSIAMDRIK([AEEA-AEEA-AEEA-γGlu-C18 diacid])QQDFVNWLLAQR-NH2
# modifications: not fully specified (residue 1)
# B3: AT233 (peptide)
# peptide: TFISDYSIALDRIKQQDFVNWLLAQR
# HELM: PEPTIDE1{T.F.I.S.D.Y.S.I.A.L.D.R.I.K.Q.Q.D.F.V.N.W.L.L.A.Q.R.[am]}|PEPTIDE2{[O=C(O)CCCCCCCCCCCCCCC(=O)[*:2]].[gGlu]}$PEPTIDE1,PEPTIDE2,14:R3-2:R2$$$V2.0; N-terminus assumed
# SMILES: CC[C@H](C)[C@H](NC(=O)[C@H](CO)NC(=O)[C@H](Cc1ccc(O)cc1)NC(=O)[C@H](CC(=O)O)NC(=O)[C@H](CO)NC(=O)[C@@H](NC(=O)[C@H](Cc1ccccc1)NC(=O)[C@@H](N)[C@@H](C)O)[C@@H](C)CC)C(=O)N[C@@H](C)C(=O)N[C@@H](CC(C)C)C(=O)N[C@@H](CC(=O)O)C(=O)N[C@@H](CCCNC(=N)N)C(=O)N[C@H](C(=O)N[C@@H](CCCCNC(=O)CC[C@H](NC(=O)CCCCCCCCCCCCCCC(=O)O)C(=O)O)C(=O)N[C@@H](CCC(N)=O)C(=O)N[C@@H](CCC(N)=O)C(=O)N[C@@H](CC(=O)O)C(=O)N[C@@H](Cc1ccccc1)C(=O)N[C@H](C(=O)N[C@@H](CC(N)=O)C(=O)N[C@@H](Cc1c[nH]c2ccccc12)C(=O)N[C@@H](CC(C)C)C(=O)N[C@@H](CC(C)C)C(=O)N[C@@H](C)C(=O)N[C@@H](CCC(N)=O)C(=O)N[C@@H](CCCNC(=N)N)C(N)=O)C(C)C)[C@@H](C)CC
# B4: AT375 (peptide)
# peptide: EGTFISDYSIAMDRIK([AEEA-AEEA-AEEA-γGlu-C16 diacid])QQDFVNWLLAQR-NH2
# modifications: not fully specified (residue 1)
# B5: AT376 (peptide)
# peptide: EGTFISDYSIAMDRIK([AEEA-γGlu-C18 diacid])QQDFVNWLLAQR-NH2
# modifications: not fully specified (residue 1)
# B6: AT267 (peptide)
# peptide: PGTFISDYSIAMDRIKQQDFVNWLLAQR
# HELM: PEPTIDE1{P.G.T.F.I.S.D.Y.S.I.A.M.D.R.I.K.Q.Q.D.F.V.N.W.L.L.A.Q.R}|PEPTIDE2{[O=C(O)CCCCCCCCCCCCCCC(=O)[*:2]].[gGlu]}$PEPTIDE1,PEPTIDE2,16:R3-2:R2$$$V2.0; N-terminus assumed
# SMILES: CC[C@H](C)[C@H](NC(=O)[C@H](CO)NC(=O)[C@H](Cc1ccc(O)cc1)NC(=O)[C@H](CC(=O)O)NC(=O)[C@H](CO)NC(=O)[C@@H](NC(=O)[C@H](Cc1ccccc1)NC(=O)[C@@H](NC(=O)CNC(=O)[C@@H]1CCCN1)[C@@H](C)O)[C@@H](C)CC)C(=O)N[C@@H](C)C(=O)N[C@@H](CCSC)C(=O)N[C@@H](CC(=O)O)C(=O)N[C@@H](CCCNC(=N)N)C(=O)N[C@H](C(=O)N[C@@H](CCCCNC(=O)CC[C@H](NC(=O)CCCCCCCCCCCCCCC(=O)O)C(=O)O)C(=O)N[C@@H](CCC(N)=O)C(=O)N[C@@H](CCC(N)=O)C(=O)N[C@@H](CC(=O)O)C(=O)N[C@@H](Cc1ccccc1)C(=O)N[C@H](C(=O)N[C@@H](CC(N)=O)C(=O)N[C@@H](Cc1c[nH]c2ccccc12)C(=O)N[C@@H](CC(C)C)C(=O)N[C@@H](CC(C)C)C(=O)N[C@@H](C)C(=O)N[C@@H](CCC(N)=O)C(=O)N[C@@H](CCCNC(=N)N)C(=O)O)C(C)C)[C@@H](C)CC
# B7: AT377 (peptide)
# peptide: EGTFISDYSIAMDRIK([AEEA-AEEA-γGlu-C18 diacid])QQDFVNWLLAQR-NH2
# modifications: not fully specified (residue 1)
# B8: AT261 (peptide)
# peptide: PGTFISDYSIAMDRIK(C16 diacid)QQDFVNWLLAQR-OH
# modifications: N-terminus assumed
# SMILES: CC[C@H](C)[C@H](NC(=O)[C@H](CO)NC(=O)[C@H](Cc1ccc(O)cc1)NC(=O)[C@H](CC(=O)O)NC(=O)[C@H](CO)NC(=O)[C@@H](NC(=O)[C@H](Cc1ccccc1)NC(=O)[C@@H](NC(=O)CNC(=O)[C@@H]1CCCN1)[C@@H](C)O)[C@@H](C)CC)C(=O)N[C@@H](C)C(=O)N[C@@H](CCSC)C(=O)N[C@@H](CC(=O)O)C(=O)N[C@@H](CCCNC(=N)N)C(=O)N[C@H](C(=O)N[C@@H](CCCCNC(=O)CCCCCCCCCCCCCCC(=O)O)C(=O)N[C@@H](CCC(N)=O)C(=O)N[C@@H](CCC(N)=O)C(=O)N[C@@H](CC(=O)O)C(=O)N[C@@H](Cc1ccccc1)C(=O)N[C@H](C(=O)N[C@@H](CC(N)=O)C(=O)N[C@@H](Cc1c[nH]c2ccccc12)C(=O)N[C@@H](CC(C)C)C(=O)N[C@@H](CC(C)C)C(=O)N[C@@H](C)C(=O)N[C@@H](CCC(N)=O)C(=O)N[C@@H](CCCNC(=N)N)C(=O)O)C(C)C)[C@@H](C)CC
# B9: AT259 (peptide)
# peptide: SGTFISDYSIAMDRIK(C16 diacid)QQDFVNWLLAQR-OH
# modifications: N-terminus assumed
# SMILES: CC[C@H](C)[C@H](NC(=O)[C@H](CO)NC(=O)[C@H](Cc1ccc(O)cc1)NC(=O)[C@H](CC(=O)O)NC(=O)[C@H](CO)NC(=O)[C@@H](NC(=O)[C@H](Cc1ccccc1)NC(=O)[C@@H](NC(=O)CNC(=O)[C@@H](N)CO)[C@@H](C)O)[C@@H](C)CC)C(=O)N[C@@H](C)C(=O)N[C@@H](CCSC)C(=O)N[C@@H](CC(=O)O)C(=O)N[C@@H](CCCNC(=N)N)C(=O)N[C@H](C(=O)N[C@@H](CCCCNC(=O)CCCCCCCCCCCCCCC(=O)O)C(=O)N[C@@H](CCC(N)=O)C(=O)N[C@@H](CCC(N)=O)C(=O)N[C@@H](CC(=O)O)C(=O)N[C@@H](Cc1ccccc1)C(=O)N[C@H](C(=O)N[C@@H](CC(N)=O)C(=O)N[C@@H](Cc1c[nH]c2ccccc12)C(=O)N[C@@H](CC(C)C)C(=O)N[C@@H](CC(C)C)C(=O)N[C@@H](C)C(=O)N[C@@H](CCC(N)=O)C(=O)N[C@@H](CCCNC(=N)N)C(=O)O)C(C)C)[C@@H](C)CC
# Target: T1, human GIP receptor (human, UniProt P48546 22-466)
# T1 sequence (looked up): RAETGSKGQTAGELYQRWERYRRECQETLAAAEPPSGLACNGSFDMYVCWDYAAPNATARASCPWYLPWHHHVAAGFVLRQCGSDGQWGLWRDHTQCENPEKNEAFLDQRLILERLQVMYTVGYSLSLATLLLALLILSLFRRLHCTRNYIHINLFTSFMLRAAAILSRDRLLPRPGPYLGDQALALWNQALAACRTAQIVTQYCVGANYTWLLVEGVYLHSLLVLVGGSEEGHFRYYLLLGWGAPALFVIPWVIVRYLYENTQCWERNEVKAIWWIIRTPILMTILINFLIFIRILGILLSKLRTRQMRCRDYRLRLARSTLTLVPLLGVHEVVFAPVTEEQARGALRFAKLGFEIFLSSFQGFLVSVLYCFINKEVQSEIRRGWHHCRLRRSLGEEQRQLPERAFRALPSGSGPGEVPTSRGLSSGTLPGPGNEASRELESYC
# Test: cell-based or functional assay
Binder,CisBio cAMP agonism % Efficacy [%],CisBio cAMP antagonism % inhib [%],CisBio cAMP antagonism IC50 [nM],CisBio cAMP antagonism pIC50,DiscoveRx cAMP agonism Emax,DiscoveRx cAMP antagonism IC50 [nM],DiscoveRx cAMP antagonism log IC50 [log M],DiscoveRx cAMP antagonism % inhib [%]
B1,0,66,39.8,7.4,26,16,-7.8,–
B2,0,90,11.7,7.9,–,16,-7.8,92
B3,0,70,34.2,7.5,28,32,-7.5,–
B4,6,83,23.3,7.6,–,22,-7.7,100
B5,0,87,6.81,8.2,–,19,-7.7,90
B6,4,52,736,6.1,16,123,-6.9,–
B7,0,90,18.5,7.7,–,19,-7.7,100
B8,0,62,200,6.7,24,46,-7.3,–
B9,9,72,58.4,7.2,20,19,-7.7,–
